Data taken from publication PMC3008307 (Virology, 2010).

B1: GST-rv-cyclin (natural protein)
chain: MDIPVEFLTAQEPLSYGHIPPVYWKELLNWIDRILTHNQATPNTWEATHMVLLKLHGTLSFSNPAQLPLVAAACLQIAAKHTEAHSRLADPDYITMLGDGVYTKPSLLLTETMALFIVGGHVGAYTLAACDWLLGSLPFSQAENDLLHPYMYHYIKLSYRHRTPDYHSSPALRAAVVIAAAVKGADLLEMNMLFIMMYHLTHISTASLSLGLTHFTAALQRQINLDFAEAEQREAAERRALLEREREQQLQEARERLDDVMAVLEAEVAITITTATEGTDAEDTSEVDVINVVDPIG
B2: GST-cyclin C (natural protein, human, UniProt P24863 1-283, looked up)
chain: MAGNFWQSSHYLQWILDKQDLLKERQKDLKFLSEEEYWKLQIFFTNVIQALGEHLKLRQQVIATATVYFKRFYARYSLKSIDPVLMAPTCVFLASKVEEFGVVSNTRLIAAATSVLKTRFSYAFPKEFPYRMNHILECEFYLLELMDCCLIVYHPYRPLLQYVQDMGQEDMLLPLAWRIVNDTYRTDLCLLYPPFMIALACLHVACVVQQKDARQWFAELSVDMEKILEIIRVILKLYEQWKNFDERKEMATILSKMPKPKPPPNSEGEQGPNGSQNSSYSQS

Experiments:
[1] = target: 6-His-cdk3 (human, UniProt Q00526 1-305); test: pull-down
[2] = target: 6-His-cdk8 (human, UniProt P49336 1-464); test: pull-down
6-His-cdk8, sequence (P49336 whole entry): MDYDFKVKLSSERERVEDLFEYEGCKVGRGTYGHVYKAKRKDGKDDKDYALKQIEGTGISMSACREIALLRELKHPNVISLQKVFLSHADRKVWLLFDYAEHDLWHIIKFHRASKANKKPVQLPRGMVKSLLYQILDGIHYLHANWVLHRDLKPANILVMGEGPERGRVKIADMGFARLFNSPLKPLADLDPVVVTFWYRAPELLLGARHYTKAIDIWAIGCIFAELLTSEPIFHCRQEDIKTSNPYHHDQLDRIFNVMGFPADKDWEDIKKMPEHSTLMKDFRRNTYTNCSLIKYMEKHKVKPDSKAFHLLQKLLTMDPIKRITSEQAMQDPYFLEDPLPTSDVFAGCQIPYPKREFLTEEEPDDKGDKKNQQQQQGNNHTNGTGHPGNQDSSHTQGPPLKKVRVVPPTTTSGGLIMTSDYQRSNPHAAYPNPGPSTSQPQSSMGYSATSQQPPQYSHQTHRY

6-His-cdk3, sequence (Q00526 whole entry): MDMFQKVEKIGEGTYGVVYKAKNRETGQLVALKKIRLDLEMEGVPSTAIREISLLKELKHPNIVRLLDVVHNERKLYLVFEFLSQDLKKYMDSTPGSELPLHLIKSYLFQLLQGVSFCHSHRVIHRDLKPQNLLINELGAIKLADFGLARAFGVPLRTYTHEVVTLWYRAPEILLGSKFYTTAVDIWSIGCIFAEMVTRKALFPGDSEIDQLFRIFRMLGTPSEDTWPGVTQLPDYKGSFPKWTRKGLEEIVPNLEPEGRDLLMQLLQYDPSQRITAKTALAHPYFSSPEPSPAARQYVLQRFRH

Binder | binding result [1] | binding result [2]
B1 | binds | binds
B2 | binds | binds
